According to patent publication US20130224854A1 (NIPPON KAYAKU, published 2013):

Molecular target: T1, single-chain type IV collagen alpha1 polypeptide (human) (human, UniProt P02462 173-1669, lower proportion of hydroxylated proline and hydroxylated lysine residues than type IV collagen; carries a sugar chain recognized by ABA lectin (positions not given))
T1 construct: mature; Secreted by human cancer cells (HLF, UO31, Lu65A); also called single-chain type IV collagen polypeptide; single-chain COL4
Experiment: competition ELISA at equilibrium in solution (method of Djavadi-Ohaniance), free antibody measured on immobilized antigen
Protocol: The dissociation constant of the purified monoclonal antibody NK46141 was determined by ELISA with reference to the method of Djavadi-Ohaniance L. et al. [Djavadi-Ohaniance L., et al., (1996) In Antibody Engineering (Eds.: McCafferty J., et al.), Chapter 4, pp. 77-97., IRL Press, Oxford.].
In brief, Immunoplate (Nunc; manufactured by Thermo Fisher Scientific Inc.) with the single-chain type IV collagen al polypeptide (antigen) immobilized thereon in advance was prepared. Meanwhile, JK132 and NK46141 having a constant concentration (0.10 μg/ml) were each incubated with varying concentrations of the antigen for a sufficient time until reaching equilibrium. This incubation solution was added to the ELISA wells to determine the amount of free antibodies. Since the antigen-antibody reaction follows the law of mass action, measured values were applied to formula 1 below. X and Y in formula 2 below were determined, and a graph was drawn to determine the dissociation constant from the slope (1/Kd).

T1 sequence (P02462 173-1669): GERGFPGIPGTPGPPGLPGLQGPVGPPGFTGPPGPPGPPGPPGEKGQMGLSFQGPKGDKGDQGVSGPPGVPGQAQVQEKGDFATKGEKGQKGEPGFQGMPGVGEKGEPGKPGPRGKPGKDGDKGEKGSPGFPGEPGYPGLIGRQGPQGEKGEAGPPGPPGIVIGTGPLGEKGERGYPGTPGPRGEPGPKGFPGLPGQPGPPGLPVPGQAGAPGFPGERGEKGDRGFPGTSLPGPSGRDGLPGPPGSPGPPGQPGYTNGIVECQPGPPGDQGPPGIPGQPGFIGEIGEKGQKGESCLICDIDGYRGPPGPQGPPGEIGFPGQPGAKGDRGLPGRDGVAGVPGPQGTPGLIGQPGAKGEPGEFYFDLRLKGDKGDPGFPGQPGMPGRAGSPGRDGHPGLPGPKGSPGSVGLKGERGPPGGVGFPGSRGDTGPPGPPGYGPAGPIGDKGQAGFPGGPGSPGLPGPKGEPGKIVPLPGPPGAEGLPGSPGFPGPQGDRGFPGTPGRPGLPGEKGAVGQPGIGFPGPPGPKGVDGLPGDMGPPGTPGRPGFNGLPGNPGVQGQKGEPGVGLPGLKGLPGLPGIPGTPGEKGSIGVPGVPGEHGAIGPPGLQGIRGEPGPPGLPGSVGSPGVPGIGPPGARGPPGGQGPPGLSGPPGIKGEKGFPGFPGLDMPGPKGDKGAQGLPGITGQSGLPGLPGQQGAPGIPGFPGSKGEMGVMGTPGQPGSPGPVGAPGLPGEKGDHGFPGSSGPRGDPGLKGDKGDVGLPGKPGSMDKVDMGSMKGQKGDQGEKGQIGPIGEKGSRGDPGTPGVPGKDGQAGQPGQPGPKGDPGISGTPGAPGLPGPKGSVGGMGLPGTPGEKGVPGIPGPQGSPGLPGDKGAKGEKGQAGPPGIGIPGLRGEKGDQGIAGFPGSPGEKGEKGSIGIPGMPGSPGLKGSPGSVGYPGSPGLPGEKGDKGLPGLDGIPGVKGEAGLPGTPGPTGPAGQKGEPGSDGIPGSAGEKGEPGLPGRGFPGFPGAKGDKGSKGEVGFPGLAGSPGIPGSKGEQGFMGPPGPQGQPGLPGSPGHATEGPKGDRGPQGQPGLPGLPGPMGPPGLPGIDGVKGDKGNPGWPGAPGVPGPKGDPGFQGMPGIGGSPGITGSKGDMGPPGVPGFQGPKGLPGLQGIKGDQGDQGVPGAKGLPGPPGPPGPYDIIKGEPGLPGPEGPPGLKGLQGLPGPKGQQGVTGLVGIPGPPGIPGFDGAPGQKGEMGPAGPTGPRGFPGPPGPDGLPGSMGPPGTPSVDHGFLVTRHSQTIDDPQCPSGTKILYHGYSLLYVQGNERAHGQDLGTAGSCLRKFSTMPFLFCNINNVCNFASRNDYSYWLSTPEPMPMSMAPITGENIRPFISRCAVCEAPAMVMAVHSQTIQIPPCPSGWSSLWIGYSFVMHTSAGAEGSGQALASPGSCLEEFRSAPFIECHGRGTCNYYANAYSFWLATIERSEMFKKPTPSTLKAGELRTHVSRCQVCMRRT

- Kd: 34 nM
B1: monoclonal antibody NK46141 (antibody, V domains shown)
VH: EVQLVESGGGLVKPGGSLKLSCAASGFTFTDYYMYWVRQTPEKRLEWVATISEGGSYTYYPDSVKGRFTISRDNAKNNLYLQMSSLKSEDTAMYYCASPYYGDGGFAYWGQGTLVTVSA
VL: DVLMTQTPLSLPVSLGDQASISCRSSQSIVHSDGNTYLEWYLQKPGQSPRLLIYKVSNRFSGVPDRFSGSGSGTDFTLKISRVEAEDLGVYYCFQGSHVPPTFGGGTKLEIKR
notes: also called anti-single-chain type IV collagen polypeptide antibody; Anti NK-Antigen monoclonal antibody #141
